# Source: the supplement of paper PMC10724198
# ± gives the standard deviation of the averaged measurements.
# Columns and labels:
# Saccharomyces cerevisiae [1] = assay: protein stability index of tFT-peptide fusion (C-terminal peptide) (PSI (0-1 scale)); higher = more stable (slower turnover)
# Procedure: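 MPS profiling in S. cerevisiae of the tFT-X12 degron library: putative degron peptides plus stable controls, 12 aa, fused to the C-terminus of a sfGFP-mCherry timer. Cells are FACS-sorted into 8 mCherry/sfGFP bins and deep-sequenced. PSI runs from 0 (unstable) to 1 (stable). Backgrounds are wild type, das1Δ and doa10Δ at 30 °C, and wild type, das1Δ, cdc34-1 and cdc53-1 at 37 °C; 2-3 technical replicates each.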
# Saccharomyces cerevisiae [2] = assay: as above; conditions: genetic background: wild type; temperature: 30 C
# [3] = genetic background: cdc34-1, temperature: 37 C
# [4] = genetic background: cdc53-1, temperature: 37 C
# [5] = genetic background: das1 deletion, temperature: 30 C
# [6] = genetic background: das1 deletion, temperature: 37 C
# [7] = genetic background: doa10 deletion, temperature: 30 C
# [8] = genetic background: wild type, temperature: 30 C
# [9] = genetic background: wild type, temperature: 37 C
# 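Also: PSI is a weighted mean of sequencing reads over stability bins, variants kept only with over 10 reads, mCherry proximal and sfGFP distal, peptide attached via GGGS linker.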
Sequence,protein stability index (Saccharomyces cerevisiae [1]; [3]),protein stability index (Saccharomyces cerevisiae [1]; [4]),protein stability index (Saccharomyces cerevisiae [1]; [5]),protein stability index (Saccharomyces cerevisiae [1]; [6]),protein stability index (Saccharomyces cerevisiae [1]; [7]),protein stability index (Saccharomyces cerevisiae [1]; [8]),protein stability index (Saccharomyces cerevisiae [1]; [9]),protein stability index (Saccharomyces cerevisiae [2])
LGCRFCFVGVVG,0.589 ± 0.011,0.632 ± 0.052,0.429 ± 0.021,0.634 ± 0.026,0.395 ± 0.01,0.439 ± 0.029,0.574 ± 0.022,0.494 ± 0.033
WLCVFVFGIFFV,0.146 ± 0.016,0.162 ± 0.01,0.179 ± 0.026,0.2894 ± 0.0021,0.292 ± 0.0061,0.186 ± 0.016,0.266 ± 0.0091,0.204 ± 0.016
MLFALLTIVFLG,0.241 ± 0.031,0.3263 ± 0.0015,0.242 ± 0.024,0.388 ± 0.0085,0.166 ± 0.0093,0.182 ± 0.015,0.30056 ± 0.00017,0.295 ± 0.016
GNRDLVNTSVEG,0.679 ± 0.029,0.721 ± 0.011,0.619 ± 0.045,0.715 ± 0.051,0.6331 ± 0.006,0.633 ± 0.033,0.6989 ± 0.0025,0.547 ± 0.17
ALFVGVVLLVCW,0.0857 ± 0.0098,0.193 ± 0.023,0.177 ± 0.023,0.28 ± 0.0069,0.154 ± 0.013,0.156 ± 0.032,0.24564 ± 0.00015,0.298 ± 0.013
YYVIFHLFSFLI,0.427 ± 0.025,0.478 ± 0.0057,0.383 ± 0.033,0.533 ± 0.048,0.288 ± 0.0055,0.293 ± 0.022,0.493 ± 0.026,0.392 ± 0.094
LPWLLLISFSYR,0.149 ± 0.017,0.25 ± 0.037,0.202 ± 0.029,0.38 ± 0.0051,0.171 ± 0.0091,0.188 ± 0.029,0.378 ± 0.061,0.286
FVFLVLGPYAMF,0.444 ± 0.032,0.512 ± 0.013,0.354 ± 0.028,0.609 ± 0.048,0.346 ± 0.013,0.341 ± 0.01,0.556 ± 0.019,0.415 ± 0.0026
ALMTFTLVFTYM,0.168 ± 0.0067,0.296 ± 0.0055,0.181 ± 0.022,0.324 ± 0.02,0.209 ± 0.026,0.173 ± 0.027,0.278 ± 0.027,0.251 ± 0.014
ASCFFLFVLRVF,0.0589 ± 0.0071,0.113 ± 0.0091,0.169 ± 0.016,0.271 ± 0.0072,0.13 ± 0.0043,0.112 ± 0.017,0.14 ± 0.019,0.233 ± 0.041
FLVVSSVGFPLL,0.676 ± 0.017,0.73 ± 0.0085,0.626 ± 0.018,0.729 ± 0.027,0.618 ± 0.011,0.628 ± 0.014,0.714 ± 0.014,0.467 ± 0.027
VIVKSRTTLYIS,0.49 ± 0.015,0.616 ± 0.0078,0.538 ± 0.013,0.613 ± 0.0096,0.092 ± 0.018,0.107 ± 0.018,0.193 ± 0.023,0.155 ± 0.0099
VIWVLGALASWG,0.5892 ± 0.0018,0.6304 ± 0.0041,0.479 ± 0.035,0.632 ± 0.011,0.468 ± 0.02,0.479 ± 0.0059,0.618 ± 0.015,0.556 ± 0.098
RVLVEIVYFKVF,0.244 ± 0.0031,0.395 ± 0.032,0.256 ± 0.04,0.474 ± 0.012,0.037 ± 0.014,0.05 ± 0.0044,0.055 ± 0.00095,0.134 ± 0.0018
FFFSLFFVLFFA,0.284 ± 0.035,0.23 ± 0.011,0.21 ± 0.035,0.348 ± 0.061,0.323 ± 0.028,0.2 ± 0.022,0.314 ± 0.013,0.22 ± 0.0051
